Consider two substances from patent US20200055896A1, “SUBSTRATES RECOGNIZED BY FIBROBLAST ACTIVATION PROTEIN (FAP) AND METHODS OF USING THE SAME” (GENENTECH, INC., priority 2017, published 2020).

No end group written: not given here.

One experiment deals with T1, recombinant human PREP (Homo sapiens, UniProt P48147).
T1 construct: purchased R&D Systems 4308-SE
T1 sequence (P48147 1-710): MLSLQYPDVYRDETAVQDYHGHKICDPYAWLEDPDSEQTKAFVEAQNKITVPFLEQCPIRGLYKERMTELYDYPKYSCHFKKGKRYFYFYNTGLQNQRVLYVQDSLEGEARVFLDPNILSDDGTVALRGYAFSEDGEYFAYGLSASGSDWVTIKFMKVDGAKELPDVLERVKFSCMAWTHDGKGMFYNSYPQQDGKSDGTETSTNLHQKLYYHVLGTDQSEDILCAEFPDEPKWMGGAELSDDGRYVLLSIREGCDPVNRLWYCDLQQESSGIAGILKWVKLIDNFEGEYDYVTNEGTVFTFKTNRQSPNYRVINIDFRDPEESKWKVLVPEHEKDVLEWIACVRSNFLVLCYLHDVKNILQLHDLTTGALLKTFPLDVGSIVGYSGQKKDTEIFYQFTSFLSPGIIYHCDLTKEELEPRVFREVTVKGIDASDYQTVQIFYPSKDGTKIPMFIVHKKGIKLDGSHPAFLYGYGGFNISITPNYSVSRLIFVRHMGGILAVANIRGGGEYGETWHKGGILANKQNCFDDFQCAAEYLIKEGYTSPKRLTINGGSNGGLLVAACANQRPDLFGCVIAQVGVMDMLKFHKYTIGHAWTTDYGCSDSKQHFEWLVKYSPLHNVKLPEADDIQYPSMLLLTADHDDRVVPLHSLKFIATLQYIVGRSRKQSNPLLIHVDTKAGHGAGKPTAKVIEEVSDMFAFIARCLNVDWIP
Briefly: FRET-quench assay: probe cleavage by recombinant human PREP. The settings on record: 1 nM enzyme. Type of experiment: biochemical. The text has this: (§1) Human prolyl oligopeptidase (PREP, 4308-SE), DPPIV (1180-SE), DPP9 (5419-SE), and DPPII/DPP7 (3438-SE) proteins were purchased from R&D Systems. Human DPP8 (BML-SE527) protein was purchased from Enzo Life Sciences. N-terminal octa-His-tagged human and mouse FAP proteins containing the extracellular domain (residues L26-D760 and L26-D761, respectively) were purified from the conditioned media of transiently-transfected CHO cells, by immobilized metal affinity chromatography (IMAC), followed by size exclusion chromatography (SEC).
(§2) Peptides of the region flanking the C-terminal human FGF21 cleavage site (VGPSQG) or a variant with D-alanine at P2 (VaPSQG) were synthesized (Anaspec, Inc.), containing an amine-terminal donor (HyLite Fluor 488 or Cy5.5 for aP NIRF) and a dark quencher-acceptor (QXL 520 or QSY21 for aP NIRF) conjugated to a supplementary C-terminal lysine. ANPFAP (Bioconjugate Chem 23:1704-11) and aP NIRF were synthesized by CPC Scientific (Sunnyvale, Calif.). Assays were conducted at 37° C. in 50 mM HEPES (pH 7.2), 150 mM NaCl, 1 mM EDTA, 0.1 mg/ml BSA. The excitation/emission wavelengths of cleaved peptide are 490/520 nm or 675/695 nm for ANPFAP and aP NIRF. Fluorescence was monitored on a Tecan M1000 Pro plate reader in kinetic mode. Except where indicated otherwise, measurements of serum or plasma FAP activity were performed with the peptide substrate concentration at 6 μM and a 10-fold dilution of serum or plasma in assay buffer.

The next experiment addresses T2, recombinant human FAP (Homo sapiens, UniProt Q12884).
T2 construct: (residues L26-D760 and L26-D761, respectively); octa-His (N); made in house; host or cells: transiently transfected CHO cells (conditioned media)
T2 sequence (Q12884 26-760): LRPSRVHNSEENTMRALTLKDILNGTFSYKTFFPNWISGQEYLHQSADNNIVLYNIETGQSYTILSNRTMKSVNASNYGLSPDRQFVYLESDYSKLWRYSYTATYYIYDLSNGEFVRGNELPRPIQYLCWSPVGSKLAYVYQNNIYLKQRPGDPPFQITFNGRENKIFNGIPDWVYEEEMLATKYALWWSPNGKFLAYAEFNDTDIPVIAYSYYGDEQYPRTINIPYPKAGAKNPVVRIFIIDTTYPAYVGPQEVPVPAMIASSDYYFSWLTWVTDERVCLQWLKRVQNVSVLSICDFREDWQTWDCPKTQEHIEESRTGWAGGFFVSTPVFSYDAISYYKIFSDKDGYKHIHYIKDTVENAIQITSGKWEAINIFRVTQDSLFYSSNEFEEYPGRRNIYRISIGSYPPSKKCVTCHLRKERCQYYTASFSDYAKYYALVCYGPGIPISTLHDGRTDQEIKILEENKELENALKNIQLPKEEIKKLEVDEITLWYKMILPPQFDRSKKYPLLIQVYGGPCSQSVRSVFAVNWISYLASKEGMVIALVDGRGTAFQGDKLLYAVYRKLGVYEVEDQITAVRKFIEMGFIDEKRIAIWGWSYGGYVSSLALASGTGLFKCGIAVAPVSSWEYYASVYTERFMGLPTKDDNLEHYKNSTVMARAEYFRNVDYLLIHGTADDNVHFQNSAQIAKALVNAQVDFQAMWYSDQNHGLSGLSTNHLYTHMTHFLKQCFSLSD
The experiment can be described thus: FRET-quench assay: probe cleavage by recombinant human FAP. Format: biochemical. The settings on record: 1 nM enzyme.
Excerpt: as §1, §2

In the case of “GP probe: human FGF21 cleavage-site peptide VGPSQG with amine-terminal HyLite Fluor 488 donor and QXL 520 quencher on supplementary C-terminal lysine ({HyLite Fluor 488}-VGPSQGK(QXL 520))”, the “cleavage by recombinant human PREP” value with recombinant human PREP is “readily cleaved”. The “cleavage by recombinant human FAP” value with recombinant human FAP is on record as “readily cleaved”.
Regarding “aP probe: FGF21-based peptide VaPSQG (D-alanine at P2) with HyLite Fluor 488 donor and QXL 520 quencher”, in the experiment with recombinant human PREP, the “cleavage by recombinant human PREP” value is on record as “unable to digest”. Further, the “cleavage by recombinant human FAP” value with recombinant human FAP is reported as “clearly detectable”.
